# Positions count from the first letter of the chain named.
# T1: human EphB1 extracellular region-SEAP-His protein (human, UniProt P54762 18-540)
# T1 construct: extracellular domain; also called hEphB1-SEAP-His
# T1 sequence (looked up): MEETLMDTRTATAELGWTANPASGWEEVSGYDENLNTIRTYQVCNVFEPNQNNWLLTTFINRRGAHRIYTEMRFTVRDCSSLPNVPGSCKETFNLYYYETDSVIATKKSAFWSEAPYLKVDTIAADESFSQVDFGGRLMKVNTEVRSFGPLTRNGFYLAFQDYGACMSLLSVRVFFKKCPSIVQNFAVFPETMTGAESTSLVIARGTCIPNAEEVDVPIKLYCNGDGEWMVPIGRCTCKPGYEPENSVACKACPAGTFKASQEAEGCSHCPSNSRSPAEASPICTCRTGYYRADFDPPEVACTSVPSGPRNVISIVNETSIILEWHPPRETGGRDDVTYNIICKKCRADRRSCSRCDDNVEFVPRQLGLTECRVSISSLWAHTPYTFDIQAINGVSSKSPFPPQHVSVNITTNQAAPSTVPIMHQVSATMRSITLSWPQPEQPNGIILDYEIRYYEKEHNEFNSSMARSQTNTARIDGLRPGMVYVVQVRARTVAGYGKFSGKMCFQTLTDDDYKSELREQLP
# B1: humanized antibody No. 140 (antibody, human IgG2)
# heavy: QVQLVQSGSELKKPGASVKVSCKASGYTFTDYSMHWVRQAPGQGLKWMGWINTETGEPTYAQGFTGRFVFSLDTSVSTAYLQISSLKAEDTAVYYCARIPLYYYGSRYWYFDVWGQGTTVTVSSASTKGPSVFPLAPSSRSTSESTAALGCLVKDYFPEPVTVSWNSGALTSGVHTFPAVLQSSGLYSLSSVVTVPSSNFGTQTYTCNVDHKPSNTKVDKTVERKSCVECPPCPAPPAAAPSVFLFPPKPKDTLMISRTPEVTCVVVDVSHEDPEVQFNWYVDGVEVHNAKTKPREEQFNSTFRVVSVLTVVHQDWLNGKEYKCKVSNKGLPAPIEKTISKTKGQPREPQVYTLPPSREEMTKNQVSLTCLVKGFYPSDIAVEWESNGQPENNYKTTPPMLDSDGSFFLYSKLTVDKSRWQQGNVFSCSVMHEALHNHYTQKSLSLSPG
# light: DIQMTQSPSSLSASVGDRVTITCRASENIYRNLAWYQQKPGKAPKLLVYAATNLADGVPSRFSGSGSGTDYTLTISSLQPEDFATYYCQHFWGTPWTFGQGTKVEIKRTVAAPSVFIFPPSDEQLKSGTASVVCLLNNFYPREAKVQWKVDNALQSGNSQESVTEQDSKDSTYSLSSTLTLSKADYEKHKVYACEVTHQGLSSPVTKSFNRGEC
# notes: human Ig kappa; also called L1-4/HA2
# B2: humanized antibody No. 157 (antibody, human IgG2)
# heavy: B1 heavy with K46E
# light: B1 light with K45Q, V48L
# notes: human Ig kappa; also called L1-6/HA1
# B3: humanized antibody No. 155 (antibody, human IgG2)
# heavy: B1 heavy with V2I, Q62D, G63D, T65K
# light: B1 light with V48L, P80S
# notes: human Ig kappa; also called L1-5/HK4
# B4: humanized antibody No. 151 (antibody, human IgG2)
# heavy: B1 heavy with V2I
# light: B1 light with V48L, P80S
# notes: human Ig kappa; also called L1-5/HA4
# B5: humanized antibody No. 154 (antibody, human IgG2)
# heavy: B1 heavy with K46E, Q62D, G63D, T65K
# light: B1 light with V48L, P80S
# notes: human Ig kappa; also called L1-5/HK1
# B6: humanized antibody No. 141 (antibody, human IgG2)
# heavy: B1 heavy with K46E, Q62D, G63D, T65K
# light: B1 light
# notes: human Ig kappa; also called L1-4/HK1
# B7: humanized antibody No. 156 (antibody, human IgG2)
# heavy: B1 heavy with V2I
# light: B1 light with K45Q, V48L
# notes: human Ig kappa; also called L1-6/HA4
# B8: humanized antibody No. 158 (antibody, human IgG2)
# heavy: B1 heavy
# light: B1 light with K45Q, V48L
# notes: human Ig kappa; also called L1-6/HA2
# B9: humanized antibody No. 160 (antibody, human IgG2)
# heavy: B1 heavy with V2I, Q62D, G63D, T65K
# light: B1 light with K45Q, V48L
# notes: human Ig kappa; also called L1-6/HK4
# B10: humanized antibody No. 139 (antibody, human IgG2)
# heavy: B1 heavy with K46E
# light: B1 light
# notes: human Ig kappa; also called L1-4/HA1
# B11: humanized antibody No. 138 (antibody, human IgG2)
# heavy: B1 heavy with V2I
# light: B1 light
# notes: human Ig kappa; also called L1-4/HA4
# B12: humanized antibody No. 143 (antibody, human IgG2)
# heavy: B1 heavy with V2I, Q62D, G63D, T65K
# light: B1 light
# notes: human Ig kappa; also called L1-4/HK4
# B13: humanized antibody No. 142 (antibody, human IgG2)
# heavy: B1 heavy with Q62D, G63D, T65K
# light: B1 light
# notes: human Ig kappa; also called L1-4/HK2
# B14: humanized antibody No. 144 (antibody, human IgG2)
# heavy: B1 heavy with K46E, Q62D, G63D, T65K
# light: B1 light with K45Q, V48L
# notes: human Ig kappa; also called L1-6/HK1
# B15: humanized antibody No. 153 (antibody, human IgG2)
# heavy: B1 heavy
# light: B1 light with V48L, P80S
# notes: human Ig kappa; also called L1-5/HA2
# B16: humanized antibody No. 152 (antibody, human IgG2)
# heavy: B1 heavy with K46E
# light: B1 light with V48L, P80S
# notes: human Ig kappa; also called L1-5/HA1
# B17: humanized antibody No. 159 (antibody, human IgG2)
# heavy: B1 heavy with Q62D, G63D, T65K
# light: B1 light with K45Q, V48L
# notes: human Ig kappa; also called L1-6/HK2
# B18: humanized antibody No. 145 (antibody, human IgG2)
# heavy: B1 heavy with Q62D, G63D, T65K
# light: B1 light with V48L, P80S
# notes: human Ig kappa; also called L1-5/HK2
# Molecular target: T2, human EphA4 extracellular region-SEAP-His protein (human, UniProt P54764 20-547)
# T2 construct: also called hEphA4-SEAP-His
# T2 sequence (P54764 20-547): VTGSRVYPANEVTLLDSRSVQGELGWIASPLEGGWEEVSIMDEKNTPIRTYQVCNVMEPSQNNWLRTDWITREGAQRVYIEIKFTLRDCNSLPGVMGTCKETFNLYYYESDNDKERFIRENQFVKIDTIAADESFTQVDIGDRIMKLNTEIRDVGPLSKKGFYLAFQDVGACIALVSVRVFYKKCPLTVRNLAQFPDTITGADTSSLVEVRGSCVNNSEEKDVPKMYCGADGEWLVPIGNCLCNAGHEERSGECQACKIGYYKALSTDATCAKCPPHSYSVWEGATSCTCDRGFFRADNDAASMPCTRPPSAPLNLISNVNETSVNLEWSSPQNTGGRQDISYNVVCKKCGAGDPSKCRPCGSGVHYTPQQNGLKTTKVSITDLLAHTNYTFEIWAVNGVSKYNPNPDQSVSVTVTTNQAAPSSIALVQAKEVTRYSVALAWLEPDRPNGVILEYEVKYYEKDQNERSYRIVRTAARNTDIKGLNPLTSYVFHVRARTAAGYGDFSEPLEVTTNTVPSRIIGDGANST
# Test: ELISA
row,Binder,A450 as % of hEphA4-SEAP-His
1,B1,100%
2,B2,100%
3,B3,100%
4,B4,100%
5,B5,100%
6,B6,100%
7,B7,100%
8,B8,100%
9,B9,100%
10,B10,100%
11,B11,100%
12,B12,100%
13,B13,100%
14,B14,100%
15,B15,100%
16,B16,100%
17,B17,100%
18,B18,100%

# Molecular target: T1, human EphB1 extracellular …
# Test: ELISA
row,Binder,A450 as % of hEphA4-SEAP-His
1,B1,5.3%
2,B2,6.1%
3,B3,5.4%
4,B4,6.8%
5,B5,6.3%
6,B6,5.4%
7,B7,5.4%
8,B8,6.2%
9,B9,6.1%
10,B10,5.5%
11,B11,5.1%
12,B12,5.9%
13,B13,5.6%
14,B14,5.7%
15,B15,6%
16,B16,5.9%
17,B17,5.3%
18,B18,6.5%

# Molecular target: T2, human EphA4 extracellular …
# Test: SPR, Ab captured
# Procedure, shortened: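 Affinity (KD=kd/ka) obtained by fitting SPR curves to a 1:1 model. Analyte was human EphA4 extracellular region-SEAP-His, injected sequentially from 0.6 to 50 nM in HBS-EP (120 s on, 900 s off), onto humanized antibodies on protein A or antibody A on anti-mouse IgG1 surfaces, capture level about 30–60 RU.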
Binder,Kd,koff,kon
B1,1.4 nM,0.00043 s⁻¹,320000 M⁻¹ s⁻¹
B2,2 nM,0.00068 s⁻¹,350000 M⁻¹ s⁻¹
B3,1.9 nM,0.00064 s⁻¹,330000 M⁻¹ s⁻¹
B4,1.7 nM,0.00053 s⁻¹,320000 M⁻¹ s⁻¹
B5,2.2 nM,~0.00085 s⁻¹,390000 M⁻¹ s⁻¹
B6,1.6 nM,0.00062 s⁻¹,390000 M⁻¹ s⁻¹
B7,1.6 nM,0.00056 s⁻¹,310000 M⁻¹ s⁻¹
B8,1.9 nM,0.00061 s⁻¹,310000 M⁻¹ s⁻¹
B9,1.9 nM,0.00061 s⁻¹,320000 M⁻¹ s⁻¹
B10,1.4 nM,0.00053 s⁻¹,370000 M⁻¹ s⁻¹
B11,1.3 nM,0.00043 s⁻¹,330000 M⁻¹ s⁻¹
B12,1.5 nM,0.00051 s⁻¹,350000 M⁻¹ s⁻¹
B13,1.5 nM,0.0005 s⁻¹,340000 M⁻¹ s⁻¹
B14,2 nM,0.00078 s⁻¹,400000 M⁻¹ s⁻¹
B15,2.1 nM,0.0006 s⁻¹,290000 M⁻¹ s⁻¹
B16,2 nM,0.00082 s⁻¹,400000 M⁻¹ s⁻¹
B17,2 nM,0.00061 s⁻¹,310000 M⁻¹ s⁻¹
B18,2 nM,0.00065 s⁻¹,330000 M⁻¹ s⁻¹

# Molecular target: T2, human EphA4 extracellular …
# Test: competition ELISA, competitor human Ephrin A5-Fc
# Procedure, shortened: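 Ligand binding to captured receptor measured as A450 after HRP-streptavidin/TMBZ development and acid stop. Receptor fusion (10 nM final) was immobilised via anti-alkaline phosphatase antibody; biotinylated Ephrin A5-Fc (0.7 nM final) added together with antibody titrations from 0 to 3000 nM, 1 h, room temperature.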
row,Binder,IC50
1,B1,2.4 nM
2,B2,2.6 nM
3,B3,2.4 nM
4,B4,2 nM
5,B5,2.5 nM
6,B6,3 nM
7,B7,2.5 nM
8,B8,2.8 nM
9,B9,2.2 nM
10,B10,3.3 nM
11,B11,2.9 nM
12,B12,5.3 nM
13,B13,3.7 nM
14,B14,3.6 nM
15,B15,2.3 nM
16,B16,2 nM
17,B17,2.6 nM
18,B18,3.7 nM

# Reference: patent US20190077860A1 (EISAI R AND D MANAGEMENT, published 2019)
